Data: the Human Domainome abundance scans (Beltran et al. 2025)

B1: Neutrophil cytosol factor 2, residues 456 to 514; numbered along this chain, P19878 (parent)
chain: LKKGSQVEALFSYEATQPEDLEFQEGDIILVLSKVNEEWLEGECKGKVGIFPKVFVEDC
B2: COUP transcription factor 1, residues 83 to 159; numbered along this chain, P10589 (parent)
chain: HIECVVCGDKSSGKHYGQFTCEGCKSFFKRSVRRNLTYTCRANRNCPIDQHHRNQCQYCRLKKCLKVGMRREAVQRG

Variants of: B1
Assay: abundance fitness (aPCA) (normalised: wild type 0, dead -1); higher = more abundant; growth selection in yeast, the domain comes from the species named
Conditions: Homo sapiens

Abundance fitness: each site, then its substitutions
V7: G -0.67, R -0.343, W -0.999, L -0.633, A -0.662, S -0.287, M -0.99, D -0.907, F -0.414, P -0.506, T 0.249, I -0.805
L1: W 0.161, N -0.024, M 0.035, I 0.114, F 0.593, G -0.053, S -0.217, R 0.08, K -0.529, Y 0.581, V -0.294, E 0.143
A9: T -0.476, W -0.432, S -0.726, P 0.082, C 0.167, N -0.537, I -0.533, V -1.13, G -0.439, M -0.532, R -0.688, F -0.2, L -0.471, E -0.361
A15: C -0.362, F -0.606, D -0.73, G -0.152
S12: L -0.086, P -0.257, M -0.382, R -0.315, H -0.44, N -0.206, V -0.816, W -0.557, G -0.377, K -0.609, T -0.119, I -0.069, E -0.937, Y -0.841, C -0.595, D -0.139
E8: S 0.048, N 0.524, K 1.17, T 0.126, M 0.684, Q 0.472, P -0.363, L 0.433, G -0.093, R 1.16, A 0.164, V 0.959, F 0.452, I 0.744
K3: R -0.397, M -0.005, V -0.033, E -0.067, G -0.714, F -0.153, Y -0.479, T -0.094, I 0.207, C 0.761, L -0.337, S -0.474, W -0.781, D -0.366, P 0.347, A -0.483
F11: W -0.392, S -0.333, A 0.567, R 0.145, T -0.347, E -0.572, C 0.418, L -0.314, K 0.153, V 0.035, I -0.772, M -0.084, N 0.029, G -0.176, Y -0.191
S5: F 0.011, Q -0.365, M 0.216, I -0.299, R -0.116, G -1.17, E 0.099, A 0.353, P -0.804, K 0.309, V -0.056, Y 0.219, D 0.797, L -0.289, T -0.037
E14: R 0.096, C -0.301, T 0.319, W -0.168, V 0.027, P 0.023, F -0.236, H 0.236, I -0.304, G -0.233, D -0.073, M -0.483, S -0.123, Q 0.068, L -0.231, N 0.074, A 0.059, K 0.217, Y -0.215
G4: V -0.452, L -0.83, W -0.84, Y -0.89, A -0.695, K -0.193, R -0.535, P -0.208, C -0.371, I 0.575, D -0.031, F -0.312
Q6: G -0.72, R 0.028, S -0.667, K 0.157, F 0.714, L 0.437, W 0.367, I -0.133, V 0.538, E -0.158, A -0.717, H 0.427, M 0.023, P -0.924, C -0.337
K2: G -0.307, F 0.093, V -0.337, S -0.347, L -0.46, E -0.415, R 0.002, N 0.141, W -0.109, A 0.146, M -0.593, H 0.249, P 0.067, T 0.427
Y13: T -0.644, K -0.307, P -0.21, S -0.487, M 0.207, H -0.104, C -0.432, W -0.484, E -0.499, A -0.505, G -0.165, L -0.573, D -0.646, I -0.487, F -0.391, N -0.472, R 0.458
L10: E -0.667, S -0.789, K -0.611, G -0.57, P -0.539, M 0.116, T -0.528, W -0.92, V -0.609, N -0.226, R 0.046

Variants of: B2
Assay: as above
Conditions: Homo sapiens

Abundance fitness of substitutions, site by site:
A73: L -0.04, P -0.11, N 0.064, Q 0.063, M -0.065, V -0.052, I -0.239, Y -0.061, R -0.275, F 0.02, K -0.183, H 0.038, T -0.034, D 0.112, S -0.02, G -0.025
R76: A -0.13, L 0.024, M -0.047, W 0.007, E 0.11, N 0.123, Q 0.083, G 0.161, C 0.082, Y 0.046, V -0.009, P -0.197, F 0.097, T 0.025, H 0.094, D 0.221, S -0.048
R71: T 0.02, P 0.023, Y 0.089, C -0.062, S 0.018, M 0.151, N -0.034, W -0.085, F 0.016, H -0.103, Q 0.049, D 0.017, V -0.019, G -0.083, I 0.084, A 0.007, K 0.104, L -0.039
G77: H -0.004, T -0.016, A 0.12, Q 0.304, D 0.117, W -0.23, E 0.06, R -0.058, S 0.064, K 0.101, M -0.017, C -0.096, Y -0.257, F -0.317, V -0.041, I -0.042, L -0.095, N -0.023, P -0.013
R70: S 0.144, Y -0.323, V 0.032, M 0.173, T 0.023, Q 0.112, N 0.071, P -0.161
E72: T -0.283, M -0.262, F -0.316, G -0.258, Y -0.177, Q -0.319, W -0.248, I -0.325, P -0.418, A -0.237, L -0.317, S -0.252, D -0.002, C -0.337
Q75: N -0.115, P 0.034, Y -0.219, D 0.211, C -0.07, L -0.007, W -0.119, I -0.077, R -0.159, G 0.084, M -0.114, F -0.026, K -0.071, S -0.023, E 0.104, H 0.222, A 0.125
V74: Q -0.063, I -0.292, P -0.151, F -0.175, M -0.185, A 0.028, W -0.3, R -0.449, K -0.264, C -0.032, S -0.199, E -0.004, T -0.112, L -0.224, G -0.102, D -0.065, H -0.104, Y -0.353, N -0.061
